Values of other authors as cited in publication PMC2994893.

Molecular target: Lck phospho-Tyr505 motif pTyr505 motif (Homo sapiens) (UniProt P06239)

Substance: Lck SH2 (from UniProt P06239)
- Kd: 300 nM
